From patent publication US20230220057A1 (STAIDSON BEIJING BIOPHARMACEUTICALS, published 2023) come the findings set out here.

Changes are numbered by the printed parent chain.

The chains are these.
B1: Ab1 (antibody, human IgG1, V domains shown)
VH: EVQLVQSGAEVKKPGATVKISCKVSGYTFITYWISWVQQAPGKGLEWMGAIDPSDSDARYSPSFQGRVTITADTSTDTAYMELSSLRSEDTAVYYCAKSDPGYSGYSLLYGFDSWGQGTLVTVSS
VL: DIVMTQTPLSSPVTLGQPASISCRSSQSLVQRNGNTYLSWLQQRPGQPPRLLIYQVSNRYSGVPDRFSGSGAGTDFTLKISRVEAEDVGVYYCGQGAHLPLTFGQGTKVEIK
notes: Lead antibody; also called Abl
B2: Ab22 (antibody, human IgG1, V domains shown)
VH: B1 VH with T28S, T74K
VL: B1 VL with L41Y
B3: Ab9 (antibody, human IgG1, V domains shown)
VH: B1 VH
VL: B1 VL with T7S, S11L, L41Y, A72S
B4: Ab40 (antibody, human IgG1, V domains shown)
VH: B1 VH with T74K
VL: B1 VL with T7S, S11L, L41F, A72S
B5: Ab5 (antibody, human IgG1, V domains shown)
VH: B1 VH
VL: B1 VL with I2V, T7S, S11L, L41Y, A72S
B6: Ab3 (antibody, human IgG1, V domains shown)
VH: B1 VH
VL: B1 VL with I2V, T7S, S11L, L41F, P48S, A72S
B7: Ab26 (antibody, human IgG1, V domains shown)
VH: B1 VH with T28S, T74K
VL: B1 VL with I2V, T7S, S11L, L41F, A72S
B8: Ab13 (antibody, human IgG1, V domains shown)
VH: B1 VH with T28S
VL: B1 VL with I2V, T7S, S11L, L41F, P48S, A72S
B9: Ab51 (antibody, human IgG1, V domains shown)
VH: EVQLVQSGAEVKKPGESLKISCKISGYSFITYWISWVRQMPGKGLEWMGAIDPSDSDARYSPSFQGQVTISADKSISTAYLQWSSLKASDTAMYYCAKSDPGYSGYSLLYGFDSWGQGTLVTVSS
VL: B1 VL
B10: Ab27 (antibody, human IgG1, V domains shown)
VH: B1 VH with T28S, T74K
VL: B1 VL with T7S, S11L, L41F, P48S, A72S
B11: Ab31 (antibody, human IgG1, V domains shown)
VH: B1 VH with T74K
VL: B1 VL
B12: Ab33 (antibody, human IgG1, V domains shown)
VH: B1 VH with T74K
VL: B1 VL with I2V, T7S, S11L, L41F, P48S, A72S
B13: Ab34 (antibody, human IgG1, V domains shown)
VH: B1 VH with T74K
VL: B1 VL with I2V, T7S, S11L, L41Y, P48S, A72S
B14: Ab50 (antibody, human IgG1, V domains shown)
VH: B9 VH with I24G
VL: B1 VL with T7S, S11L, L41F, A72S
B15: Ab53 (antibody, human IgG1, V domains shown)
VH: B9 VH
VL: B1 VL with I2V, T7S, S11L, L41F, P48S, A72S
B16: Ab32 (antibody, human IgG1, V domains shown)
VH: B1 VH with T74K
VL: B1 VL with L41Y
B17: Ab21 (antibody, human IgG1, V domains shown)
VH: B1 VH with T28S, T74K
VL: B1 VL
B18: Ab30 (antibody, human IgG1, V domains shown)
VH: B1 VH with T28S, T74K
VL: B1 VL with T7S, S11L, L41F, A72S
B19: Ab24 (antibody, human IgG1, V domains shown)
VH: B1 VH with T28S, T74K
VL: B1 VL with I2V, T7S, S11L, L41Y, P48S, A72S
B20: Ab14 (antibody, human IgG1, V domains shown)
VH: B1 VH with T28S
VL: B1 VL with I2V, T7S, S11L, L41Y, P48S, A72S
B21: Ab11 (antibody, human IgG1, V domains shown)
VH: B1 VH with T28S
VL: B1 VL
B22: Ab41 (antibody, human IgG1, V domains shown)
VH: B9 VH with I24G
VL: B1 VL
B23: Ab43 (antibody, human IgG1, V domains shown)
VH: B9 VH with I24G
VL: B1 VL with I2V, T7S, S11L, L41F, P48S, A72S
B24: Ab15 (antibody, human IgG1, V domains shown)
VH: B1 VH with T28S
VL: B1 VL with I2V, T7S, S11L, L41Y, A72S
B25: Ab2 (antibody, human IgG1, V domains shown)
VH: B1 VH
VL: B1 VL with L41Y
B26: Ab7 (antibody, human IgG1, V domains shown)
VH: B1 VH
VL: B1 VL with T7S, S11L, L41F, P48S, A72S
B27: Ab12 (antibody, human IgG1, V domains shown)
VH: B1 VH with T28S
VL: B1 VL with L41Y
B28: Ab38 (antibody, human IgG1, V domains shown)
VH: B1 VH with T74K
VL: B1 VL with T7S, S11L, L41Y, P48S, A72S
B29: Ab28 (antibody, human IgG1, V domains shown)
VH: B1 VH with T28S, T74K
VL: B1 VL with T7S, S11L, L41Y, P48S, A72S
B30: Ab39 (antibody, human IgG1, V domains shown)
VH: B1 VH with T74K
VL: B1 VL with T7S, S11L, L41Y, A72S
B31: Ab25 (antibody, human IgG1, V domains shown)
VH: B1 VH with T28S, T74K
VL: B1 VL with I2V, T7S, S11L, L41Y, A72S
B32: Ab23 (antibody, human IgG1, V domains shown)
VH: B1 VH with T28S, T74K
VL: B1 VL with I2V, T7S, S11L, L41F, P48S, A72S
B33: Ab35 (antibody, human IgG1, V domains shown)
VH: B1 VH with T74K
VL: B1 VL with I2V, T7S, S11L, L41Y, A72S
B34: Ab29 (antibody, human IgG1, V domains shown)
VH: B1 VH with T28S, T74K
VL: B1 VL with T7S, S11L, L41Y, A72S
B35: Ab17 (antibody, human IgG1, V domains shown)
VH: B1 VH with T28S
VL: B1 VL with T7S, S11L, L41F, P48S, A72S
B36: Ab20 (antibody, human IgG1, V domains shown)
VH: B1 VH with T28S
VL: B1 VL with T7S, S11L, L41F, A72S
B37: Ab8 (antibody, human IgG1, V domains shown)
VH: B1 VH
VL: B1 VL with T7S, S11L, L41Y, P48S, A72S
B38: Ab18 (antibody, human IgG1, V domains shown)
VH: B1 VH with T28S
VL: B1 VL with T7S, S11L, L41Y, P48S, A72S
B39: Ab19 (antibody, human IgG1, V domains shown)
VH: B1 VH with T28S
VL: B1 VL with T7S, S11L, L41Y, A72S

In the experiment the target is recombinantly produced human-NGF (human, UniProt P01138 122-241, limits assumed). The experiment in a line: ELISA, human NGF coated, IgG titrated. The method, then: NGF binding ELISA assay: In human NGF binding ELISA, Corning 3366 high binding 96 well plates were coated with recombinantly produced human-NGF at 1 μg per ml, 50 μl/well in 1×PBS, and incubated overnight at 4° C. The plates were washed and blocked with 250 μl of 1×PBS/1% BSA at least 30 minutes at room temperature. 50 μl of culture supernatants, after 1:1 diluted by the PBS/BSA diluent, or the purified antibodies diluted serially from a certain concentration with the diluent, were added per well, and incubated at 37° C. for 2 hours. After washing, a secondary antibody, goat anti-human IgG Fc AP (Southern biotech) was applied at a dilution of 1:3000 in PBS/BSA. The plates were incubated for 1 hour at RT and washed. After adding the PNPP substrate, the ODs at 405 nm were read.
recombinantly produced human-NGF, sequence (P01138 122-241 limits assumed): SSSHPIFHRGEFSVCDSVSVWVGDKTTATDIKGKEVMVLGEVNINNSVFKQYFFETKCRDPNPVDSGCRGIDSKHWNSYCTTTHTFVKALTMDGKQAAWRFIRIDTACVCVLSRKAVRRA
NGF binding ELISA assay: NGF binding ELISA assay was performed as described in Example 1.
(In general: In an ELISA, binding on a coated surface is turned into a signal by an enzyme label.)
In the case of B1, the EC50 turned out to be 0.0185 ng/mL.

With B2, the EC50 came out at 0.0382 ng/mL. Turning to B3, the EC50 worked out at 0.0876 ng/mL. To B4 belongs 0.0172 ng/mL; to B5, 0.0139 ng/mL; to B6, 0.017 ng/mL. B7: the EC50 was determined as 0.0234 ng/mL. Consider B8, for which the EC50 was found to be 0.043 ng/mL. Turning to B9, the EC50 was found to be 0.0221 ng/mL. For B10, the concentration for a half-maximal effect (EC50) was determined as 0.0206 ng/mL. As for B11, the figure is 0.0502 ng/mL. Turning to B12, the EC50 is 0.0342 ng/mL. To B13 belongs 0.11 ng/mL; to B14, 0.00629 ng/mL; to B15, 0.0482 ng/mL. Turning to B16, the EC50 was determined as 0.0403 ng/mL. To B17 belongs 0.0403 ng/mL; to B18, 0.0254 ng/mL; to B19, 0.0399 ng/mL. Turning to B20, the EC50 was 0.0351 ng/mL. Regarding B21, the EC50 was determined as 0.032 ng/mL. For the molecule B22, the EC50 was determined as 0.0192 ng/mL. In the case of B23, the EC50 was found to be 0.0221 ng/mL. For the molecule B24, the EC50 was 0.046 ng/mL. Consider B25, for which the EC50 was determined as 0.0197 ng/mL. As for B26, the figure is 0.00988 ng/mL; as for B27, 0.0365 ng/mL.

In the case of B28, the EC50 stood at 0.0252 ng/mL. Regarding B29, the EC50 came out at 0.0331 ng/mL.

For B30, the EC50 turned out to be 0.0208 ng/mL. On to B31, for which the 50% effective concentration (EC50) came out at 0.0331 ng/mL. Turning to B32, the EC50 worked out at 0.0405 ng/mL. As for B33, the figure is 0.0308 ng/mL; as for B34, 0.0292 ng/mL. Regarding B35, the EC50 amounted to 0.016 ng/mL. Turning to B36, the EC50 was 0.0215 ng/mL. On to B37, for which the EC50 is 0.0205 ng/mL. In the case of B38, the EC50 was 0.0271 ng/mL. As for B39, the figure is 0.0324 ng/mL.

As a reminder, the EC50 is the concentration giving half of the maximal effect.
